Experimental data reported in the nanobody polyreactivity screen of Harvey et al. (2022).

Assay: yeast display, Sf9 membrane polyspecificity reagent, FACS + sequencing; frameworks hold sequencing errors
How it was run: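 Galactose induction of a Saccharomyces cerevisiae BJ5465 synthetic nanobody display library ran 36–48 hours. The cells were then stained for 1 hour at 4 °C with 10% biotinylated, detergent-solubilized Sf9 membrane reagent, pulled down on streptavidin microbeads and FACS-sorted into low and high (top ~1%) gates on expression and reagent-binding fluorescence. Labels for polyreactivity follow the gate of origin.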

Sequence | polyreactivity (PSR sort gate)
QVQLVESGGGLVQAGGSLRISSAASGRTFFTNAKGWYRQAPGKERELVAVITYRGDSTYADSVKGRFTISRDNAKNTVYLQMNSLKPEDTAVYYCNAEFRGGRWFTYDYWGHGTQVTVSS | low polyreactivity
QVHLVESRGGLVQAGGSLRLSCAASGRPFNPYAMGWYRQAPGKEREFVYADSVKGRFTISRDNAKNTVYLQMNSLKPEDTAVYYCAADVYPDTLHPYNYDYWGQGTQVTVSS | low polyreactivity
QVQLVESGGGLVQAGGSLRLSCAASGFNFRRNAMGWYRQAPGKERELVAVITSSARTNYADSVKGRFTISRDNAKNTVYLQMNSLNPEDTAVYSCNAYRYRQSSSDKYGYWGQGTQVTVSS | high polyreactivity
QVQLVESGGGLVQAGGSLRLSCAASGNIISTYAMGWYRQAPGKERELVAAITSSSARTYYADSVKGRFTISRDNAKNTVYLQLNSLKPEDTAVYYCATRTGIRQDLVHLYRVYYWGQGTQVTVSS | high polyreactivity
QVQLVESGGGLVQAGGSLRLSCAASGITFGYYAMGWSRQAPGKERELVAAISSGGRTNYADSVKGRFTISRDNAKNTVYLQMISLKPEDTAVYYCAASTHHPGYPPDVLYDEYEYWGQGTQVTVSS | low polyreactivity
QVQLVESGGGLVQAGGSLRLSCAASGLTSYDNTMGWYRQAPGKERELVARIRRTGGGTYYADSVKGRFTISRDNAKNTVYLQMNSMKPEDTAVYYCAATITPYDYDYIWFVYSDHDYWGQGTQVTVSS | low polyreactivity
QVQLVESGGGLVQAGGSLRLICAASGFIFIGYAMGWYRQARGKERELVAAISWRGGTYYADSVKGRFTISRDNAKNSVYLQMNSLKPEDTAVYYCAARTRNAVRSGSGKYDYCGQGTQVTVSS | low polyreactivity
QVQLVESGGGLVQAGGSLRLSCAASGSIFGYYAMGWYRQAPGKERELVATITWGGGSTYADSVKGRFTISRDNAKNTVYLQMNSLKPEDTAVYYCNAGYRYTSAQVTWEYDYWGQGTQVTVSS | low polyreactivity
QVQLVESGGGLVQAGGSLRLSCAASGSIFTENDMGWYRQAPGKEREMVAAIDWDGGRTYYADSVKGRFTISRDNAKNTVYLQMNSLKPEDTAVYYCNKGRYWSNYFYWPSTHVYWGQGTQVTVSS | high polyreactivity
QVQLVESAGGLVQAGGSLRLSCAASGLTFPPNAMGWYRHAPGKERELVADSGGSTNYADSVKGRFTISRDNAKNTVYLQMNSLKPEDTAVYYCAAPPYSDGQWDDYWGQGSQVTVSS | low polyreactivity
QVQLVESGGGLVQAGGSLRLSCAASGLIFYKYAMGWYRQAPGKEREFVAAISGSGGSTYYADSVKGRFTISRDNAKNTVYLQMNSLKPEDTAVYYCAVRQRYGPARYDYWGQGTQVTVSS | high polyreactivity
QVQLVESGGGLVQAGGSLRLSCAASGRIFNTYAMGWFRQAPGKERELVAAITRSAGRTYYADSVKGRFTISRDTAKNTVYLQMNSLKPEDTAVYYCAAQYNYGQRSGPYGYWGQGTQVTVSS | low polyreactivity
QVQLVESGGGLVQAGGSLRLSCAASGSTFSYYAMGWYRQAPGKERELVAAITTSGGRTYYADSVKGRFTISRDNAKNTVYLQMNSLKPEDTAVYYCNARSGRLGDYWGQGTQVTVSS | high polyreactivity
QVQLVESGGGLVQAGGSLRLSCAASGSIFYYYAMGRYRQAPGKERELVAAISSGGDTHYADSVKGRFTISRDNAKNTVYLQMNSLKPEDTAVFYCAAQRRYHQDTTIGPGNYYYWGQGTQVTVSS | low polyreactivity
QLQLVESGGGLVQAGGSLRLSCAASGSIFGDNAMGWYRQAPGKERELVAAISSSGGSTYADSVKGRFTISRDNAKNTVYLQMNSLKPEDTAVYYCATQIAWGTYVINPQMDYWGQGTQVTVSS | low polyreactivity
QVLLVESGGGLVQAGGSLRLSSAASGSIFVCNAMGWYRQAPGKERELVAAIRGVDSTYYGDSVKGRFTISRDNGKNTFFLQMNSLKPEDTAFYYCATLGPGFPRYYDWGQGTQVTVSS | high polyreactivity
QVQLVESGGGLVQAGGSLRLSCAASGGIFFLYAMGWYRQAPGKERELVAAIRQDGGSTYYADSVKGRFTISRDNAKNTVYLQMNSLKPEDTAVYYCNAGYVKTGLEYYYWGQGTQVTVSS | low polyreactivity
QVQLVESVGGLVQAGGSLRLSCAASGITFYYNAMGWSRQAPGKERELVAVITSGGSTNYADSVKGRFTISRDNAKNTVYLQMNSLKPEDTAVYYCATDKSYSSWSAQYDYWGQGTQVTVSS | low polyreactivity
QVQLVESGGGLVQAGGSLRLSCAASGVTFIYYTMGWYRQAPGKERDLVATISRRGDSPYYADSVKGRFTISRDNAKNTVYLQMNSLKPEDTAVYYCNAVTRAAYWWTARSTDYDYWGQGTLVTVSS | high polyreactivity
QVQLVESGGGLFQAGGSLRLSCAASGSTLGSNAMGWYRQAPGKERELVAAITWSGGTTYYADSLKGRFTISRDNAKNTVYLQMNSLKPEDTAVYYCAPGQSVIYRYEFWGQGTQVTVSS | low polyreactivity
QDHLVESGGGLVQAGGSLRLSCAASGISFWFNAMGWYRQAPGKEREWVGAITSGVDTNYADSVKGRFTISRDNAKNTVYLQMNSLKPEDTAVNYSAAQGGRLKRGSTTSDYWGQGTQVTVSS | low polyreactivity
QVQLVESGGGLVQAGGSLRLSCAASGFIFEYYAMGWYRQAPGKERELVAAINGGGGNTYYADSVKGRFTISRDNAKNTVYLQMNSLKPEDTAVYYCNAKRRKYRYDYWGQGTEVTVSS | high polyreactivity

Sequence | polyreactivity (PSR sort gate)
QVQLVESGGGLVQAGGSLRLSCAASGRIFTLYTMGWYRQAPGKERELVAAISSSGGRTYYADSVKGRFTISRDNAKNTVYLQMNSLKPEDTAVYYCNAGYWYYGQDDYWGQGTQVTVSS | high polyreactivity
QVQLQESGGGQVQAGGSLRLSCAASGNNSVTGFMGRYRQAPGKERELVASIGIGGTTYYADSVKGRFSISRDNAKNTVYLQMNSLKPEDTAVYYCAARYLYYAYSYWGQGTQVTVSS | low polyreactivity
QVQLVDSGGGLVQAGGSLRLSCAASGSIFRYNAMGWYREAPGKERVLVAAISWNGARTYYADSVKGRFTISRDNAKNTVYLQMNSLKPEDTAVYYCNAGTFTRRRGLDYWGQGTQVTGSS | low polyreactivity
QVQLVESGGGLVQAGGSLRLSCAASGLIFQVYTMGWYRQAPGKERELVAAISWDAGSTYYADSVKGRFTISRDNAKNTVYLLMNSLKPEDTAVYYCATTQYTTYGRRYYWGQGTQVTVSS | high polyreactivity
QVQLVESGGGLVQAGGSLRLSCAASGSTFGWYVMGWYRQAPGKERELVAAITTGGSTNYADSVKGRFTISRDHAKNSVYLQMNSLKPEDTAVYYCGKAVTEVIYRGVTEGAVDYWGQGTQVTVSS | low polyreactivity
QVQLVESGGGLVQAGGSLRLSCGASGRIFRGYTMGWYRQAPGKERELVAAINRSGGNTYYADSVKGRFTISRDNAKNTVYLQLNSLKPEDTAVYYCAAGARGYGWRGDYWGQGTQVTVSS | low polyreactivity
QVQLVESGGGLVQAGGSLRLSCAASGFTFTRYAMGWYRQAPGKERELVAAITRSGSSTYYADSVKGRFTISRDNAKNTVYLQMNSLKQEDTAVYYCAARLHSPRYRYDYWGQGNQVTVSS | high polyreactivity
QVQLVESGVRLVQSGGSLRLSCASSGFTIWRYAMGWYRQAPGKERELVAAISRSGTRTYYADSVKGRFTISRDNAKNTVYLQMNSLKPEDTAVYYCAADGLSLAYEHDYWGQGTQVTVSS | high polyreactivity
QVQLEESGGGLVQAGGSLRLSSAASGFIYVYAMGWYRQAPGKVRELVAAITATGDSTYYADSVKGRFTISRDNAKNTVYLQMNSLKPEDTAVYYCARNVNAQKVLGGFDSWGQGTQVNVSS | low polyreactivity
QVQLVESGGGLVQAGGSLRLSCAASGSIFYFNGLGWSRQSPGKEREFVAAITWGDGSTYYADSVKGRFTISRDNAKNTVYLQMNSLKPADTAVYYCAAVLLIFKYVPRYDYWGQGSQVTVSS | low polyreactivity
QVKLVESGGGLVQAGGSLRLSCAASGLIFGYNTMGWYRQAPGKERELVAAITRSGGSTYYADSVKGRFTISRDNAKNTVYLQMNSLKPEDTAVYYCAARHRSAYYHLDYWGQGTQVTVSS | high polyreactivity
QVQLVESGGGLVQAGGSLRLSCAASGSTFSSYAMGWYRQAPGKERELVAAITSGGSTNYADSVKGRFTISRDNAKNTVYLQMNSLKPEDTAVYYCNAQINDFIFVYDYWGQGTQVTVSS | low polyreactivity
QVQLVESGGGLVQAGGSLRLSCAASGFIITSYAMGWYRQAPGKERELVAAINGGGSTYYADSVKGRFTISRDNAKNTVYLQMNSLKPEDTAVYYCAAKFRAGRSSYYWGQGTQVTVSS | high polyreactivity
QVQLVESGGGLVQAGGSLRLSCAASGRIFRYYAMGWYRQAPGKERELVAAITWSGGSTYYADSVKGRFTISRDNAKNTVYLQMNSLKPEDTAVYYCNAKSYQPFHGDYWGQGTQVTVSS | low polyreactivity
QVQLVESGGGLDQAGGSLGLSCAASGFTFTGYTMGWYRQAPGKERELVATISGSGGNTYYADSVKGRFTISRDNAKNTVYLQMNSLKPEETAVYYCARRRSGPRVLYYYWGQGTQVTVSS | low polyreactivity
QVQLVESAGGLVQAGGSLRLSCDASVSTFGYYAMGWYRQAPGKERELVAVIRRGGSTNYADSVKGRFTISRDNAKNTVYLQMNSLKPEDTAVYYCAKSQRGTVYSYYYWGQGNQVTVSS | high polyreactivity
QVQLVESGGGLVQAGGSLRLSCAAYGSIFTRYAMGWYIQAPGKERELVAAISKRGGRTYYADSVKGRFTISRDNAKNTVYLQMNSLKPEDTAVYYCNAGSYDYYDGSWSYDYWGQGTQVTVSS | high polyreactivity
QVQLVESGGGLVQAGGSLRLSCAASGRIFYTNAMGWYRQAPGKERELVAVISWGGDTTYYADSVKGRFTISRDNATNTVYLQMNSLKPEDTAVYYCNADWGPTYEIYDSWGQGTQVTVSS | low polyreactivity
QVQLEESGVGLVQAGGSLRLICAASGITLFHYVMGWYRQAPGKERELVAVISSSGGSTYYADSVKGRFTISRDNAKNTVYLQMNSLKPEDTAVYYCAAETDSRKARVLYDCWGQGTQVTVSS | high polyreactivity
QVQLHESAGGLEQAGGCLSCTASGTIFGQGDMCWYLQAPGKEPELVGTINDGASTYYADSVKGRFTISRDKAKNTVYLQKNSLKPADTAVYYCSVFTDITTYFGYWGQGTQVTVSS | low polyreactivity
QVQLVESGGGLVQAGGSLRLSCAASGFTFIRNGMGWYRQAPGKERELVAAINSRGGNTYYADSVKGRFTISRDNAKNTVYLQMNSLKPEDTAVYYCNRVVQRWSTQYGYWGQGTQVTVSS | high polyreactivity
